# Laboratory results as given in US20250283117, “RNA-GUIDED NUCLEASES AND ACTIVE FRAGMENTS AND VARIANTS THEREOF AND METHODS OF USE” (Life Edit Therapeutics, Inc., published 2025).
# System: T1, APG08290.1 (Bacillus sp.)
# T1 sequence: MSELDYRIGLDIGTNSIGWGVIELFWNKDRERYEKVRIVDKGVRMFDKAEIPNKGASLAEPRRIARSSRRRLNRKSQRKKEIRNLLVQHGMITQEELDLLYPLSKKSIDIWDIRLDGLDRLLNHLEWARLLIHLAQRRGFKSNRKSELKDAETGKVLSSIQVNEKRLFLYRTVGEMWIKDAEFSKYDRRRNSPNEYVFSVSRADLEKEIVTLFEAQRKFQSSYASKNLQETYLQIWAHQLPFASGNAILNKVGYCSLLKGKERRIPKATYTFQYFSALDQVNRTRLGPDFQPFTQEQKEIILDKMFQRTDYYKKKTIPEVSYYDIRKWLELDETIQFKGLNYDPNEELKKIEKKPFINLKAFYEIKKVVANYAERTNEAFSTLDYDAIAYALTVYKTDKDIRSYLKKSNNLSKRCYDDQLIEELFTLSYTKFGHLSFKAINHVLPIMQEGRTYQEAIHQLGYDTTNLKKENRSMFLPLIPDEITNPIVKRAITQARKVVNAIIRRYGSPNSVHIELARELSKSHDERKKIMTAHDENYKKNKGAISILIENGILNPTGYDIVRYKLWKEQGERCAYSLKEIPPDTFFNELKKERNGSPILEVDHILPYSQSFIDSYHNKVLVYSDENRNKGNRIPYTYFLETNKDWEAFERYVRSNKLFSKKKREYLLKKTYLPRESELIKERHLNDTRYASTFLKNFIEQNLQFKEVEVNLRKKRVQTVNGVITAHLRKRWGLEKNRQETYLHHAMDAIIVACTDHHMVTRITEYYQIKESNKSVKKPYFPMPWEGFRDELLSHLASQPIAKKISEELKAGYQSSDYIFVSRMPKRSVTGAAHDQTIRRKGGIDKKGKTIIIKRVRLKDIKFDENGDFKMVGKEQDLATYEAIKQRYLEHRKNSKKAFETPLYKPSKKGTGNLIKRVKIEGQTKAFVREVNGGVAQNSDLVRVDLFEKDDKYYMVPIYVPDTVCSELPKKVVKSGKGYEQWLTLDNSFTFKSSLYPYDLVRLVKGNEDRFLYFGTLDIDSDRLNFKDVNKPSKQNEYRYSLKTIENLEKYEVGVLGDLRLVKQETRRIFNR
# Assay: cleavage_in_vitro
# Conditions: not given
row,Sequence,activity
1,GAGCGGACAGCAGCUUCCUAUAUCUCGUACNNNNNNNNNNNNNNNNNNNNNNNNNGUCAUAGUUCCAUGAAAGCCAAAAGUGGCUUUGAUGUUUCUAUGAUAAGGGUUUCGGCCCGUGGCGUCGGGGAUCGCCUGCCCAUUCCGAUGGGCUUCUCCCCAUUUAUU / GAGCGGACAGCAGCTTCCTATATCTGGTAC / GTACCAGATATAGGAAGCTGCTGTCCGCTC [Sequence 1 sgRNA for APG08290.1 ; target mismatch 5],0 % cleaved
2,GAGCGGACAGCAGCUUCCUAUAUCUCGUACNNNNNNNNNNNNNNNNNNNNNNNNNGUCAUAGUUCCAUGAAAGCCAAAAGUGGCUUUGAUGUUUCUAUGAUAAGGGUUUCGGCCCGUGGCGUCGGGGAUCGCCUGCCCAUUCCGAUGGGCUUCUCCCCAUUUAUU / GAGCGGACAGCAGCTTCCTATATCTCGTAG / CTACGAGATATAGGAAGCTGCTGTCCGCTC [Sequence 1 sgRNA for APG08290.1 ; target mismatch 1],0 % cleaved
3,GAGCGGACAGCAGCUUCCUAUAUCUCGUACNNNNNNNNNNNNNNNNNNNNNNNNNGUCAUAGUUCCAUGAAAGCCAAAAGUGGCUUUGAUGUUUCUAUGAUAAGGGUUUCGGCCCGUGGCGUCGGGGAUCGCCUGCCCAUUCCGAUGGGCUUCUCCCCAUUUAUU / GAGCGGACAGCAGCTTCCTATAACTCGTAC / GTACGAGTTATAGGAAGCTGCTGTCCGCTC [Sequence 1 sgRNA for APG08290.1 ; target mismatch 8],0 % cleaved
4,GAGCGGACAGCAGCUUCCUAUAUCUCGUACNNNNNNNNNNNNNNNNNNNNNNNNNGUCAUAGUUCCAUGAAAGCCAAAAGUGGCUUUGAUGUUUCUAUGAUAAGGGUUUCGGCCCGUGGCGUCGGGGAUCGCCUGCCCAUUCCGAUGGGCUUCUCCCCAUUUAUU / GAGCGGACAGCAGCTTCCTATATCTCGAAC / GTTCGAGATATAGGAAGCTGCTGTCCGCTC [Sequence 1 sgRNA for APG08290.1 ; target mismatch 3],73 % cleaved
5,GAGCGGACAGCAGCUUCCUAUAUCUCGUACNNNNNNNNNNNNNNNNNNNNNNNNNGUCAUAGUUCCAUGAAAGCCAAAAGUGGCUUUGAUGUUUCUAUGAUAAGGGUUUCGGCCCGUGGCGUCGGGGAUCGCCUGCCCAUUCCGAUGGGCUUCUCCCCAUUUAUU / GAGCGGACAGCACCTTCCTATATCTCGTAC / GTACGAGATATAGGAAGGTGCTGTCCGCTC [Sequence 1 sgRNA for APG08290.1 ; target mismatch 18],100 % cleaved
6,GAGCGGACAGCAGCUUCCUAUAUCUCGUACNNNNNNNNNNNNNNNNNNNNNNNNNGUCAUAGUUCCAUGAAAGCCAAAAGUGGCUUUGAUGUUUCUAUGAUAAGGGUUUCGGCCCGUGGCGUCGGGGAUCGCCUGCCCAUUCCGAUGGGCUUCUCCCCAUUUAUU / CAGCGGACAGCAGCTTCCTATATCTCGTAC / GTACGAGATATAGGAAGCTGCTGTCCGCTG [Sequence 1 sgRNA for APG08290.1 ; target mismatch 30],100 % cleaved
7,GAGCGGACAGCAGCUUCCUAUAUCUCGUACNNNNNNNNNNNNNNNNNNNNNNNNNGUCAUAGUUCCAUGAAAGCCAAAAGUGGCUUUGAUGUUUCUAUGAUAAGGGUUUCGGCCCGUGGCGUCGGGGAUCGCCUGCCCAUUCCGAUGGGCUUCUCCCCAUUUAUU / GAGCGGACAGCAGCTTCCTATATCTCGTTC / GAACGAGATATAGGAAGCTGCTGTCCGCTC [Sequence 1 sgRNA for APG08290.1 ; target mismatch 2],0 % cleaved
8,GAGCGGACAGCAGCUUCCUAUAUCUCGUACNNNNNNNNNNNNNNNNNNNNNNNNNGUCAUAGUUCCAUGAAAGCCAAAAGUGGCUUUGAUGUUUCUAUGAUAAGGGUUUCGGCCCGUGGCGUCGGGGAUCGCCUGCCCAUUCCGAUGGGCUUCUCCCCAUUUAUU / GAGCGGACTGCAGCTTCCTATATCTCGTAC / GTACGAGATATAGGAAGCTGCAGTCCGCTC [Sequence 1 sgRNA for APG08290.1 ; target mismatch 22],100 % cleaved
9,GAGCGGACAGCAGCUUCCUAUAUCUCGUACNNNNNNNNNNNNNNNNNNNNNNNNNGUCAUAGUUCCAUGAAAGCCAAAAGUGGCUUUGAUGUUUCUAUGAUAAGGGUUUCGGCCCGUGGCGUCGGGGAUCGCCUGCCCAUUCCGAUGGGCUUCUCCCCAUUUAUU / GAGCGGACAGCAGCTTCCTAAATCTCGTAC / GTACGAGATTTAGGAAGCTGCTGTCCGCTC [Sequence 1 sgRNA for APG08290.1 ; target mismatch 10],75 % cleaved
10,GAGCGGACAGCAGCUUCCUAUAUCUCGUACNNNNNNNNNNNNNNNNNNNNNNNNNGUCAUAGUUCCAUGAAAGCCAAAAGUGGCUUUGAUGUUUCUAUGAUAAGGGUUUCGGCCCGUGGCGUCGGGGAUCGCCUGCCCAUUCCGAUGGGCUUCUCCCCAUUUAUU / GAGCGGACAGCAGCTTCGTATATCTCGTAC / GTACGAGATATACGAAGCTGCTGTCCGCTC [Sequence 1 sgRNA for APG08290.1 ; target mismatch 13],28 % cleaved

# Same assay, conditions: PAM NNRNCC; NTS cut 4, TS cut 3, 1 nt 5' overhang (Table 3)
row,Sequence,activity
1,GAGCGGACAGCAGCUUCCUAUAUCUCGUACNNNNNNNNNNNNNNNNNNNNNNNNNGUCAUAGUUCCAUGAAAGCCAAAAGUGGCUUUGAUGUUUCUAUGAUAAGGGUUUCGGCCCGUGGCGUCGGGGAUCGCCUGCCCAUUCCGAUGGGCUUCUCCCCAUUUAUU / GAGCGGACAGCAGCTTCCTATATCTCGTAC / GTACGAGATATAGGAAGCTGCTGTCCGCTC [Sequence 1 sgRNA for APG08290.1 ; Sequence 1 target],95 % cleaved

# Same assay, conditions: incompatible PAM
row,Sequence,activity
1,GAGCGGACAGCAGCUUCCUAUAUCUCGUACNNNNNNNNNNNNNNNNNNNNNNNNNGUCAUAGUUCCAUGAAAGCCAAAAGUGGCUUUGAUGUUUCUAUGAUAAGGGUUUCGGCCCGUGGCGUCGGGGAUCGCCUGCCCAUUCCGAUGGGCUUCUCCCCAUUUAUU / GAGCGGACAGCAGCTTCCTATATCTCGTAC / GTACGAGATATAGGAAGCTGCTGTCCGCTC,0 % cleaved

# System: T2, APG05459.1 (Enterococcus sp.)
# T2 sequence: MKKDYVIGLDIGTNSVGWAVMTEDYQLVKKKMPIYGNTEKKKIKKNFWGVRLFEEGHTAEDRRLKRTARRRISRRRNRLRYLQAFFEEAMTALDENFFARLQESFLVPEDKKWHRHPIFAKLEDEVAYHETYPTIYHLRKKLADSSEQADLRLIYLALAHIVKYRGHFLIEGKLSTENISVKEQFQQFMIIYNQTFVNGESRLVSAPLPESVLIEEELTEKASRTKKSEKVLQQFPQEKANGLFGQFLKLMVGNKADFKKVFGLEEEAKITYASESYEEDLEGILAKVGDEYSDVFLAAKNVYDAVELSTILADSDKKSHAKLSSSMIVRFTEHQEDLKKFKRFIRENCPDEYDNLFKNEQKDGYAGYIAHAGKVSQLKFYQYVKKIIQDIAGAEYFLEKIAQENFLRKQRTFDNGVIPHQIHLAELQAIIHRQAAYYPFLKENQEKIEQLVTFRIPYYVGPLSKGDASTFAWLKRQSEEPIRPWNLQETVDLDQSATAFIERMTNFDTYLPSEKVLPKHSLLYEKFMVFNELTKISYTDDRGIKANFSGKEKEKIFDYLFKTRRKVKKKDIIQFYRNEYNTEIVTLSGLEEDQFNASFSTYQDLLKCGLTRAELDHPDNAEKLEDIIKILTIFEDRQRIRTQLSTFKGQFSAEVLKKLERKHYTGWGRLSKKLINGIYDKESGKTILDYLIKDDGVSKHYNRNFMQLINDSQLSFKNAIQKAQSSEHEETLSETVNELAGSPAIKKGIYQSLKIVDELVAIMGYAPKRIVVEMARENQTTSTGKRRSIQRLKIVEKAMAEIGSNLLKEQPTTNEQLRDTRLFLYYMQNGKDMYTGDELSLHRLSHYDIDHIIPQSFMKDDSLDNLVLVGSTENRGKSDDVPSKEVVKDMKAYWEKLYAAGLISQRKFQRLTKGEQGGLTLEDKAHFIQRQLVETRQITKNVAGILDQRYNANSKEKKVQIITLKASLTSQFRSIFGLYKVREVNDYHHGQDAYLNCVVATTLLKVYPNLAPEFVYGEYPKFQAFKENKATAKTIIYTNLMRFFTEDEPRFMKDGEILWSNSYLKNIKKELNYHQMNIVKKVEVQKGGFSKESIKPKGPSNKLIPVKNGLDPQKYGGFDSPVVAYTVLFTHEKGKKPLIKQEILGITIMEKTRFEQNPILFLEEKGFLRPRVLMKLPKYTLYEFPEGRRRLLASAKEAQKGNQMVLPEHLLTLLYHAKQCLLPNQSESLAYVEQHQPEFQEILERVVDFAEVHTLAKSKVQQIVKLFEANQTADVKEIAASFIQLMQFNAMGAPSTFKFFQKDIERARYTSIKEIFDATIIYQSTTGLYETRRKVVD
# Assay: cleavage_in_vitro
# Conditions: not given
row,Sequence,activity
1,GAGCGGACAGCAGCUUCCUAUAUCUCGUACNNNNNNNNNNNNNNNNNNNNNNNNNGUUUUAGAGUCAUGUUAAAGAACAUAGCAAGUUAAAAUAAGGUUUUAACCGUAAUCAACUGUAAAGUGGCGCUGUUUCGGCGCUUUUUUUGUUU / GAGCGGACAGCAGCTTCCTATATCTCGAAC / GTTCGAGATATAGGAAGCTGCTGTCCGCTC [Sequence 1 sgRNA for APG05459.1 ; target mismatch 3],3 % cleaved
2,GAGCGGACAGCAGCUUCCUAUAUCUCGUACNNNNNNNNNNNNNNNNNNNNNNNNNGUUUUAGAGUCAUGUUAAAGAACAUAGCAAGUUAAAAUAAGGUUUUAACCGUAAUCAACUGUAAAGUGGCGCUGUUUCGGCGCUUUUUUUGUUU / GAGCGGACAGCAGCTTCCTAAATCTCGTAC / GTACGAGATTTAGGAAGCTGCTGTCCGCTC [Sequence 1 sgRNA for APG05459.1 ; target mismatch 10],52 % cleaved
